# Measurements from IntAct's records for PubMed 23435380.
# B1: Homeobox protein SIX1 (Homo sapiens), Q15475 (parent)
# chain: MSMLPSFGFTQEQVACVCEVLQQGGNLERLGRFLWSLPACDHLHKNESVLKAKAVVAFHRGNFRELYKILESHQFSPHNHPKLQQLWLKAHYVEAEKLRGRPLGAVGKYRVRRKFPLPRTIWDGEETSYCFKEKSRGVLREWYAHNPYPSPREKRELAEATGLTTTQVSNWFKNRRQRDRAAEAKERENTENNNSSSNKQNQLSPLEGGKPLMSSSEEEFSPPQSPDQNSVLLLQGNMGHARSSNYSLPGLTASQPSHGLQTHQHQLQDSLLGPLTSSLVDLGS
# partner: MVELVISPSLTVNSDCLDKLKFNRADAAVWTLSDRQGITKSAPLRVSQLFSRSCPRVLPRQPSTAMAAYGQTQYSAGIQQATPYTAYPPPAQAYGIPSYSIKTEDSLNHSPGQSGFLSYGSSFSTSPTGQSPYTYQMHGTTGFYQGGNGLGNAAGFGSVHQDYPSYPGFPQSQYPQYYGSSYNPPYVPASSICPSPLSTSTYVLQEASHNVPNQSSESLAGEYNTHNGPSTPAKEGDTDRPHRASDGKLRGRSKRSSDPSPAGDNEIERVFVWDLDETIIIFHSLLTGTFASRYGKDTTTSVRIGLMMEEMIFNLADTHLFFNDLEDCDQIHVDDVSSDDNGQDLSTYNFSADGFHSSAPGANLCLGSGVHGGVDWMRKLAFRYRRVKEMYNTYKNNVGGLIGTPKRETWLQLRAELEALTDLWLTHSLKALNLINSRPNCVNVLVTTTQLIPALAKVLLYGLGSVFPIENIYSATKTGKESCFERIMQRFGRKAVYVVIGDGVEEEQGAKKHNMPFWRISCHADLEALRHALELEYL
# B2: Protein phosphatase EYA2 (Homo sapiens), O00167-1 (parent)
# chain: B1 partner
# partner: B1 chain
# Variants of: B1
# Conditions: with EYA2, O00167-1
row,Variant,effect of a mutation on the interaction
1,C16R,disrupting interaction strength

# Variants of: B2
# Conditions: with six1_human SIX1, Q15475
row,Variant,effect of a mutation on the interaction
1,P516R,decreasing interaction strength
2,A532R,disrupting interaction strength
